{"source": "patent CN116917323A", "key": {"[1]": {"molecular_target": "T1, 人B7-H4 (细胞表面B7-H4) (human) (UniProt Q7Z7D3)", "T1 sequence (looked up)": "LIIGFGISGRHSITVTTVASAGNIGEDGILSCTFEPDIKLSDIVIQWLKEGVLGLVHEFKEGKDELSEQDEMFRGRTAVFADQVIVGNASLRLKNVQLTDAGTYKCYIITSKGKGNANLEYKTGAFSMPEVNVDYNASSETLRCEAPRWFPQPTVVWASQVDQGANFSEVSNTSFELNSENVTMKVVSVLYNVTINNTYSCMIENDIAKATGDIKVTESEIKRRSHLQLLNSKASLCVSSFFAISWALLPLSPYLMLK", "assay": "flow cytometry on MX-1 cells"}, "[2]": {"molecular_target": "T2, 重组人B7-H4蛋白(R&D Systems#6576-B7-050) (human) (UniProt Q7Z7D3)", "T2 sequence (looked up)": "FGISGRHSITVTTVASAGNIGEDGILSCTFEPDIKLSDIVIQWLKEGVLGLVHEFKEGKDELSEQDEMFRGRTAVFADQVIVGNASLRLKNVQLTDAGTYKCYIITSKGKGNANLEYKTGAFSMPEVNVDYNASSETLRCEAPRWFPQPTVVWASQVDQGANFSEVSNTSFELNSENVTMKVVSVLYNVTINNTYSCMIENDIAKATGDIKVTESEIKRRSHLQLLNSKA", "assay": "BLI (Octet), antibody on anti-human Fc sensor, recombinant human B7-H4 as analyte, 25 °C"}, "[3]": {"molecular_target": "T1, 人B7-H4 (细胞表面B7-H4) (human)", "assay": "flow cytometry on HCC1569 cells"}}}
{"binder": "1D11抗体 (antibody, from another filing, V domains shown) VH: QVQLQQSGAELVRPGTSVKMSCKASGYTFTSYWIGWAKQRPGHGFEWIGDIYPGGGYTNYNEKFKGKATLTADKSSSTAYMQFSSLTSEDSAIYYCARLDGSSYRGAMDSWGQGTSITVSS VL: DIQMTQSPSSLSASLGGKVTITCKASQGFNKYVAWYQHKPGQCPRLLIHYTSTLQPGIPARFSGSGSGRDYSFSISNLEPEDSATYFCLQYGNLLYAFGGGTKLEIKR", "values": [{"measurement": "EC50", "setting": "[1]", "value": 4.9, "unit": "nM"}, {"measurement": "K d, fold lower than that of B4-H4 2F9", "setting": "[2]", "value": "> 100", "unit": "fold"}, {"measurement": "EC50", "setting": "[3]", "value": 3.44, "unit": "nM"}]}
